Measurements: US20160355587A1 (CYTOMX THERAPEUTICS, published 2016)

Biological target: T1, human CD166 protein (human, UniProt Q13740 28-526, limits assumed)
T1 construct: Isolated human CD166 protein coated on ELISA plates; also called ALCAM
T1 sequence (looked up): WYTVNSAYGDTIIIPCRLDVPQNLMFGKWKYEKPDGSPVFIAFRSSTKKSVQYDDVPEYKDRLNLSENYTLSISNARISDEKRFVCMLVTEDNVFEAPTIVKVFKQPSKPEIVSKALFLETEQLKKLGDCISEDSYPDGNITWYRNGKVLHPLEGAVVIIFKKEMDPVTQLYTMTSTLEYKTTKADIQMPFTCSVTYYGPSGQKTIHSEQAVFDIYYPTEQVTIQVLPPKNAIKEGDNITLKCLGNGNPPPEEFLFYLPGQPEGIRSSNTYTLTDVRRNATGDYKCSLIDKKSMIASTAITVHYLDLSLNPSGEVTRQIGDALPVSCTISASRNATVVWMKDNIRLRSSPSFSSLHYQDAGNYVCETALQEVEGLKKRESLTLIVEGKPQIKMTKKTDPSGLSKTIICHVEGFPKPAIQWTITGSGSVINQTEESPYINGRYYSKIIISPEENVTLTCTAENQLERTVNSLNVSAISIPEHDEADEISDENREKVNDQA
Assay: ELISA, human CD166 protein coated; positive control
Method: The antibody CD166-M9 antibody comprising VH of SEQ ID NO: 119, VL of SEQ ID NO: 120 was used a positive control, and an isotype control antibody was used a negative control.
Using a standard ELISA protocol, human CD166 protein was absorbed to ELISA plates and subsequently incubated with the indicated concentration of antibody. Bound antibody was detected with an anti-human FAB-peroxidase secondary.

B1: CD166-M9 antibody (mouse anti-CD166 Mab M9) (antibody, V domains shown)
VH: QVTLKESGPGILQPSQTLSLTCSFSGFSLSTYGMGVGWIRQPSGKGLEWLANIWWSEDKHYNSALKSRLTISKDTSNNQVFLKISSVDTADTATYYCVQIDYGNDYAFTYWGQGTLVTVSA
VL: DIVMTQAAFSNPVTLGTSASISCRSSKSLLHSNGITYLYWYLQKPGQSPQLLIYQMSNLASGVPDRFSSSGSGTDFTLRISRVEAEDVGVYYCAQNLELPYTFGGGTKLEIKR
notes: Obtained by mouse hybridoma technology; also called M9 mAb; muM9
binding result: binds
